B1: auxilin (natural protein)
chain: MKDSENKGASSPDMEPSYGGGLFDMVKGGAGRLFSNLKDNLKDTLKDTSSRVIQSVTSYTKGDLDFTYVTSRIIVMSFPLDNVDIGFRNQVDDIRSFLDSRHLDHYTVYNLSPKSYRTAKFHSRVSECSWPIRQAPSLHNLFAVCRNMYNWLLQNPKNVCVVHCLDGRAASSILVGAMFIFCNLYSTPGPAIRLLYAKRPGIGLSPSHRRYLGYMCDLLADKPYRPHFKPLTIKSITVSPIPFFNKQRNGCRPYCDVLIGETKIYSTCTDFERMKEYRVQDGKIFIPLNITVQGDVVVSMYHLRSTIGSRLQAKVTNTQIFQLQFHTGFIPLDTTVLKFTKPELDACDVPEKYPQLFQVTLDVELQPHDKVIDLTPPWEHYCTKDVNPSILFSSHQEHQDTLALGGQAPIDIPPDNPRHYGQSGFFASLCWQDQKSEKSFCEEDHAALVNQESEQSDDELLTLSSPHGNANGDKPHGVKKPSKKQQEPAAPPPPEDVDLLGLEGSAMSNSFSPPAAPPTNSELLSDLFGGGGAAGPTQAGQSGVEDVFHPSGPASTQSTPRRSATSTSASPTLRVGEGATFDPFGAPSKPSGQDLLGSFLNTSSASSDPFLQPTRSPSPTVHASSTPAVNIQPDVSGGWDWHAKPGGFGMGSKSAATSPTGSSHGTPTHQSKPQTLDPFADLGTLGSSSFASKPTTPTGLGGGFPPLSSPQKASPQPMGGGWQQGGAYNWQQPQPKPQPSMPHSSPQNRPNYNVSFSAMPGGQNERGKGSSNLEGKQKAADFEDLLSGQGFNAHKDKKGPRTIAEMRKEEMAKEMDPEKLKILEWIEGKERNIRALLSTMHTVLWAGETKWKPVGMADLVTPEQVKKVYRKAVLVVHPDKATGQPYEQYAKMIFMELNDAWSEFENQGQKPLY
B2: AP180 (natural protein)
chain: MSGQTLTDRIAAAQYSVTGSAVARAVCKATTHEVMGPKKKHLDYLIQATNETNVNIPQMADTLFERATNSSWVVVFKALVTTHHLMVHGNERFIQYLASRNTLFNLSNFLDKSGSHGYDMSTFIRRYSRYLNEKAFSYRQMAFDFARVKKGADGVMRTMAPEKLLKSMPILQGQIDALLEFDVHPNELTNGVINAAFMLLFKDLIKLFACYNDGVINLLEKFFEMKKGQCKDALEIYKRFLTRMTRVSEFLKVAEQVGIDKGDIPDLTQAPSSLMETLEQHLNTLEGKKPGNNEGSGAPSPLSKSSPATTVTSPNSTPAKTIDTSPPVDLFATASAAVPVSTSKPSSDLLDLQPDFSSGGAAAAAAPAPPPPAGGATAWGDLLGEDSLAALSSVPSEAQISDPFAPEPTPPTTTAEIATASASASTTTTVTAVTAEVDLFGDAFAASPGEAPAASEGAAAPATPTPVAAALDACSGNDPFAPSEGSAEAAPELDLFAMKPPETSVPVVTPTASTAPPVPATAPSPAPAVAAAAAATTAATAAATTTTTTSAATATTAPPALDIFGDLFESTPEVAAAPKPDAAPSIDLFSTDAFSSPPQGASPVPESSLTADLLSVDAFAAPSPATTASPAKVDSSGVIDLFGDAFGSSASEPQPASQAASSSSASADLLAGFGGSFMAPSPSPVTPAQNNLLQPNFEAAFGTTPSTSSSSSFDPSVFDGLGDLLMPTMAPAGQPAPVSMVPPSPAMAASKALGSDLDSSLASLVGNLGISGTTTKKGDLQWNAGEKKLTGGANWQPKVAPATWSAGVPPSAPLQGAVPPTSSVPPVAGAPSVGQPGAGFGMPPAGTGMPMMPQQPVMFAQPMMRPPFGAAAVPGTQLSPSPTPASQSPKKPPAKDPLADLNIKDFL
B3: EPS15 (natural protein)
chain: MAAAAQLSLTQLSSGNPVYEKYYRQVDTGNTGRVLASDAAAFLKKSGLPDLILGKIWDLADTDGKGILNKQEFFVALRLVACAQNGLEVSLSSLNLAVPPPRFHDTSSPLLISGTSAAELPWAVKPEDKAKYDAIFDSLSPVNGFLSGDKVKPVLLNSKLPVDILGRVWELSDIDHDGMLDRDEFAVAMFLVYCALEKEPVPMSLPPALVPPSKRKTWVVSPAEKAKYDEIFLKTDKDMDGFVSGLEVREIFLKTGLPSTLLAHIWSLCDTKDCGKLSKDQFALAFHLISQKLIKGIDPPHVLTPEMIPPSDRASLQKNIIGSSPVADFSAIKELDTLNNEIVDLQREKNNVEQDLKEKEDTIKQRTSEVQDLQDEVQRENTNLQKLQAQKQQVQELLDELDEQKAQLEEQLKEVRKKCAEEAQLISSLKAELTSQESQISTYEEELAKAREELSRLQQETAELEESVESGKAQLEPLQQHLQDSQQEISSMQMKLMEMKDLENHNSQLNWCSSPHSILVNGATDYCSLSTSSSETANLNEHVEGQSNLESEPIHQESPARSSPELLPSGVTDENEVTTAVTEKVCSELDNNRHSKEEDPFNVDSSSLTGPVADTNLDFFQSDPFVGSDPFKDDPFGKIDPFGGDPFKGSDPFASDCFFRQSTDPFATSSTDPFSAANNSSITSVETLKHNDPFAPGGTVVAASDSATDPFASVFGNESFGGGFADFSTLSKVNNEDPFRSATSSSVSNVVITKNVFEETSVKSEDEPPALPPKIGTPTRPCPLPPGKRSINKLDSPDPFKLNDPFQPFPGNDSPKEKDPEIFCDPFTSATTTTNKEADPSNFANFSAYPSEEDMIEWAKRESEREEEQRLARLNQQEQEDLELAIALSKSEISEA

In this test the target is GST-fused human AP-2 alpha-C (AP2A2) appendage domain, Ser923Gly (human) (UniProt O94973). The test is described as follows: pull-down.
UniProt O94973, sequence (O94973 whole entry S923G, the tested form may be a part): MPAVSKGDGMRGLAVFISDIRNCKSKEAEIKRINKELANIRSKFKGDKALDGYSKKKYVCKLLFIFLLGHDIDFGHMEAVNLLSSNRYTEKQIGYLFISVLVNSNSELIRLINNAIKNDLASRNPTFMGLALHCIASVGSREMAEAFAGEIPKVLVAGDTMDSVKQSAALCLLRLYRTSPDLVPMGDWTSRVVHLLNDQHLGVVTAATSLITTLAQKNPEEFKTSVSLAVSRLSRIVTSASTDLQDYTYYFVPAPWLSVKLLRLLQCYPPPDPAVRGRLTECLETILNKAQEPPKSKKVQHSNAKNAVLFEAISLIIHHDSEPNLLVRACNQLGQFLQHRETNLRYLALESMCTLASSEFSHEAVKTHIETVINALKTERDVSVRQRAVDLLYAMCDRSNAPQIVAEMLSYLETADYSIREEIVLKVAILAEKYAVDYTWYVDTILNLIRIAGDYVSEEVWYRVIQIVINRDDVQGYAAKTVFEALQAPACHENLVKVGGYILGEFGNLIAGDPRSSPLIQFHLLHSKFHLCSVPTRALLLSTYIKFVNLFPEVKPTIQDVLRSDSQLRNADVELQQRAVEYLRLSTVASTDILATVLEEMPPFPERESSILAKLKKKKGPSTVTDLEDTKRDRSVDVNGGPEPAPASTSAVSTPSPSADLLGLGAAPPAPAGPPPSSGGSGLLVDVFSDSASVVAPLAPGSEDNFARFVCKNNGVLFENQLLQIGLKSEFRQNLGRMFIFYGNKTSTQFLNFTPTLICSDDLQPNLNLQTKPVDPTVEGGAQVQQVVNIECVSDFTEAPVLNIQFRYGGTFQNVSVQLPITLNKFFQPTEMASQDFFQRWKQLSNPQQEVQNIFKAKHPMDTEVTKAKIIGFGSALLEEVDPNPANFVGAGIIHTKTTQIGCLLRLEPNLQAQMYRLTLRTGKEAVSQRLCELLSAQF
“amphiphysin (from UniProt P49418 1-695) (natural protein)”: the percent reduction of pulled-down signal against wildtype AP2A2-ear was 20%.
B1 registered a percent reduction of pulled-down signal against wildtype AP2A2-ear of 70%.
The same measure for B2: 80%; for B3: 30%.

For the origin of these results see PMC11209852.
